Here are results for 19 sequences from a protein production outcome set (Wang et al. 2014).

The nature of the data set: label from the status in PepcDB records.
On to “MNNTNPLVSIIVPVYKVERYIHRSIDSLLRQTYNNLEIILVDDGSPDNCPFICDKYAMQDNRIRVIHKSNGGLSDARNAALNVMTGQYVTFVDSDDYIADNMIEKFIETVKLYQCNMVVAGMNIIDKNNQIYDYRRTLTSTLSTGIDITRKLLKDVFPFNFVCAKIFESSLFEEIRFPVGRHYEDTATTYKLTHKCERIYCIADCLYFYELEREGNITSELNTSKAIKSYIDGCLNSREQIFFCQKHKDFSDLLPVLTKRLQLWALLAIQSAISLGYKEYMFYYHQIRIYIRSLSYTQRMTHLQIALTFPIIYYSLYPLLSRLKKMYKN”, for which the protein production result is listed as “failed”. The entry for “MNNTQKKLKVLFIGESWHIHMIHSKGYDSFTSSKYEEGATWLLECLRKGGVDIDYMPAHTVQIAFPESIDELNRYDVIVISDIGSNTFLLQNETFYQLKIKPNALESIKEYVKNGGGLLMIGGYLSFMGIEAKANYKNTVLAEVLPVIMLDGDDRVEKPEGICAEAVSPEHPVVNGFSDYPVFLGYNQAVARDDADVVLTINNDPLLVFGEYQQGKTACFMSDCSPHWGTQQFMSWPFYTDLWVNTLQFIARK” is “not failed”; for “MNNTQQFSLSMRLFHWAMAALVISMLAAGLLMVRSLEPWQLSILTVHKAFGVVAAALVIARLMNRLFHQIPALPGDLSSLQTFVAKASHWLLYLLLFAMPISGYLMQYFAGRPIDVFGWFRLPSALTVNIENYAIFRELHGWLAIALMALVALHVAAALHHHFIRKDTVLKSML” it is “failed”. Next, “MNPEVTVLMSVYNDKNYLSESIESILNQTFENFEFLIINDASTDGSGELLEEYSKKDKRIRLIHNKNNRGLSYSLAEGVSLAKAPWIARMDADDVSFKDRLAVQMDHVKAHSELDILGSYVIDIDDKGNELEIRKVPTTHKEIANLIWTCPFIHPTVLFKKDSIIKAGSYDRNLRRRQDYDLWFRCLEAKLKFENIDKPLLYYRSTDDYYKKNNFKVQVQQAKMGFAGARRVKAKPIAYIGITVAFIKGILPYHIRKPLSQLLKKVDPRRALEHHHHHH”: “not failed”; “MNPIKPPFTLNQYFAAWFVHVFTASAACIGVFSLYKIYQHDYVFALWLMAITVFIDAVDGSLARLVHVKSVLPKIDGALLDNIVDYLNYVITPCFFLLVKPGMLPADYVVPITAAITITSAYQFCQDDAKTPDHFFKGFPCYWNITVFYMYIFNTSMIVNTVLLSLFCVLIFIPVKYVYPSRLDYLTESRVLKILMHCCSALYGISSFCLLVNYPETNKLWVSLSLGYVGMYLFLSFYRTYYPMFKAKITANNKD”: “failed”.

As for “MNPTLSAAVTAPSAGTQDAEAEIRDLAQSLTLEQQVQLLTGADVWSTHAIPEIGLSRVVMSDGPAGVRGEDFDERHDSVSLPSSSALSATWSVETARNYGQVLGQEARRKGVHAVLGPTINLHRSPLGGRHFECMSEDPRLTATMAAGYVAGVQSMGVGATPKHYLANEAETERFTADSVVDERPLRELYLAAFEDAITEARAWLVMSSYNSINGTTASENKLLETPLSTEWGFDGVVVSDWTGVRSIDAANAHQDLEMPGPVGHWGPKLLAAVNEGRVSREAILEKVTRILRLAARVGSLEGFEPAVTHLPTELNGAAVAREVAVRGAVLVRNKGLLPLDAKALGSVAVIGHNADEARTQGGGSATVMPKYTVSPLEGLRKALPEGVKVTYARGAKVAEGIQAFPRTSLHNPVSNVPGIRVTFLAEDGTEISGEDRLASHLIWFGIGIPDGAASIRMEADWTAETAGVHHLGVGTVGRIRFVLDGTEVFNSELEDDTEVLGAALFDPPKTVHAIDTTAGQSIRIEAEYQLPKEQVIPFTAILLGEETVVAEPQAEIDAAVEAARASDVAVVVVGTNAAIESEGFDRKDLDLPGYQNQLVKAVAAANPRTVVVVNSGSPVLMPWLDTVDAVLLGWFGGQEFGSAVADILLGVEEPGGRLPTTWPSALDDVPVLNTTPTDGKVVYSEGIHIGYRAWLKQQAEGGAAPALPFGFGLGYTTFEFGKAHAPQAVTAGKDLVVHVPVKNTGTRTGREVVQVYVERTESAVERPVRWLAGYAGAHLAPAGTESVEIRIPAKAFAHYDGGWQFEQGTFRLLVGRHAADDFQSLDIELR”, the protein production entry is “failed”. Next, “MNQEVRFSRLEPEQRKALLIEATLACLKRHGFQGASVRKICAEAGVSVGLINHHYDGKDALVAEAYLAVTGRVMRLLRGAIDTAPGGARPRLSAFFEASFSAELLDPQLLDAWLAFWGAVGSIEAIGRVHDHSYGEYRALLVGVLRQLAEEGGWADFDAELAAISLSALLDGLWLESGLNPATFTPRQGVQICEAWVDGLEAGAHRRFRRAMEAC”: “not failed”; “MNQHLSISPSVSRPVWHQAIPLLLLEAALVLTWSSGFIGARFSLDYAPPLLVVFWRCVVVTLLLLPFVARQLVTLPPTLLLKNTGIGLLAMTGYVAGVTQGIALGVPAGLAALFADLLPMGMALLAALVLGQRLVWQIWAGLVVGLIGVVLVTHSALEWGNAPLWAYGLPLLGMFSLAIATLWQKHSTTSQPMKLLPNLWLQYFISSFAFAIIQGTQGGLAPIASSGFALSVAWTVGLATLGGYGLYWVCLRRAKATRVASVLYLSPPVTMLWAWAMFDEPLSWQIALGMVVSGVGVWMVIRAEARQVAS”: “failed”. For the sequence “MNQMQGRLVAGRYRLGEAIGSGGMGRVWRAHDEVLHRTVAIKELTAALYVSESDQAILLARTRGEARAAARINHSAVVTVHDVLEHDGRPWIVMELVEGRSLADAVKEEERVDPREAARVGLWVLRALRAAHTAGVLHRDVKPGNVLLADDGRVLLTDFGIAQIEGDSTITRTGEVVGSVDYLAPERVRGHDPGPSSDLWALGATLYTAVEGRSPFRRTSPLTTMQAVVEEEATEPRYAGALAPVISALLRKDPAERPDATEAEHLLAQAAEGRRPDAAQAYVPTTRYEGPPRAGDTAVQGMPAGGSGATPYPQAGGSGATPYPPTTGPTGAGPAPTGHTRGGYTQVGHTEGGYTAPGYAPAPAVGGAAPGRARRVRMRTLALVVAVAALIGAGTAVVLHQRDEGGSSAGADPTQGPTGSAAPSPSPSASATTGKGPGGSVPADWTRRDDPLGFSLYLPENWQRRDFDGDSGELRQIDYTPDGGNHVLRISVDTAPDYNDPYAHQQDLDAQLLQRLVDYRRVKLERAGYRDRDSARWEYTWTALAKDTEFPGPRRAVSQMYMSRDGVEYALNMTGPAGDWPTTQRRFKAVLQGWQEETG”, the protein production entry was “failed”.

In the case of “MNQQEVAADYLKYFDDMLAKAADLTKDIKDADKKTVVYGNVSKFSQPHVIAEWWIDKAGGISVTSEAMTKANKESLTYTLEDLLKWNPDVMFVASAAEKKEVLADARLGEITAVKNGAIYIVPRIAHVWGNRTTEQPLTIMWAMNKLYPEIVTLEHHHHHH”, the protein production entry is “not failed”. The entry for “MNQVEMTEFPVGKPQEALYGVASTPDGALWFTLAKGNAIGRLSPDGAVSRFPLPHTDGQPTTITCGPDGRPWFTLSSANAIGRLAPDGALRMFELPRPASRPFGIAGGHDGCLWFAEMAGDRIGRITIDGDIEEYDLPVKGGYPSCMAAGRDGLMWFTLNQAGAVGSISATAAPRIFPLGAADAAPVGIASDAQGALWIAQAGNGAIVRFDAGGRITEFPLHSRAARPHAIAADAAGNLWFTEWGANRIGRISEAGDLAGYELAAPGSEPHGIAIDPHGCVWAALETGRLVRLQASPRDLEHHHHHH” is “not failed”; for “MNQVHHAAQQGFSQAAELYQHARPNYPQAVVEWLKQDLRLNKYSKVVDLGAGTGKFLPYLKQVTTDIVAVEPVHEMLQQLQTAHPDIKVLQAQSTNIPLESESIDAVLCAQSFHWFANIESLNEIYQLLKPSGHLGLIWNQRDENIDWVKQIADMLMTFEGDTPRYHSGEWKKAFEHQHLFKLEHARVFSHVHTGTVEQVVSQRLLSTSFIAAMPEAQQQQLKQQFEHIVFECTGKQPTDQIDFPYITYAYDFKKI” it is “failed”; for “MNQVVEFLKIFIPLFIVIDPFGSLVLFTSMTYNFNESEKLRATKDAVFYGGIILVLFALAGEYIIYFFGISIEALEMAGGIILLLMAVEMIMEGNRPKSSGSEIVDYDIGIVPFATPMLAGPGAISLVIILMKGPIIAKIYTIISIAIIFAMVYIFFKWSSVVSKFIGAKVMKAISRIFGLLLAGFAIQYFIDAIVALSLLK” it is “failed”. Turning to “MNREELFDVTVIGGGPAGLYSAFYSGLREMKTKIIEFQPQLGGKIHVYPEKMIWDIGGLLPVTGEKLIEQLVQQGLTFQPEVVLNTKIESIIRNKDGIFTLKTSTGEEHFSKTVIVATGSGILNPQKLSIEGAERFEVSNLNYTVKSLKRFKNKTVIISGGGNSAIDWANELEPIAKKVYLTYRKEELSGHEAQVKQLMNSSAECFFNTSITTLIAGDNHEAIEYVELTNHETGEVSQLAIDEVIINHGYERDITLLENSELDVAIIDNYYIAGNANSESSVDGLYAAGDILKHEGKLHLIAGAFQDAGNAVNKAKQFIQPDASEYGMVSSHNEVFKKRNRELIKQMMK”, the protein production result is “failed”.

In the case of “MNREKLMKMANTVRTGGKGTVRRKKKAVHKTNTTDDKRLQSTLKRIGVNSIPAIEEVNIFKDDVVIQFINPKVQASIAANTWVVSGSPQTKKLQDILPQIISQLGPDNMDNLKKLAEQFQKQASGEGNAASATIQEEDDDDVPELVGETFETAAEEKAPAAAASS”, the protein production result is “failed”.

In the case of “MNRFIGYIQVACCCLLLCASCVRDGMDEDCNSYVRFVYDYNLEYIDLFHKQATKMNLYVFDEKGVFVTELKEESGAFAPDYLMTLPGAMAGRRYIFVAWSGLYGESYDKVTLTPGVSTLEDLEVSVNNLKTRIGGGVVDRELHLLWHGKQTEVSPQYNNDITTVSLLKNTKKFRIIMQMLDDSSIHVDDYDFRIISPNGRYNHENGLLGDETDEKVEYTAYHTEDDPETGAIAELNTLRLMTDTENRLVITHKSSGNVILDIPLNKYLNALRLQQYADIPLQEYLDRADKHGIILFFKGMDGNGNYISVDVQINGWLIRKQEVDGV”, the protein production entry is reported as “failed”. In the case of “MNRMMALVMAGGRGTRLAIDCEKPLLEVAGRPMIDHVLEALESATGVDGIIVVTSPHTPMTEDHVRGRHPIFRASGGGYVEDLREVLSHLEESYHEPLLVINSDLPLVRPSTIDWIISSYHSCPEPAMCVAVPDDLCRRHGLDFSGSLDGLVPCGVNILMSKNRVQEQRILEASMLELAVNINSCRDLKVLEKILGEIDGREEAHKRGREVLELEHHHHHH”, the protein production result is given as “not failed”. Turning to “MNRNKIAALIFAVSTVCVVSAHSENAYATEHKNSNQLEENNQTRSVKKGQVINVSTNLRIRKSPNTSSDVIGYLTNGEIFNIDGKEGSWYKINANGKVGYIHGDYVKEVTGNSNSSSNNSGSNSNLDTSLAGKKGTVVNVSTSLRVRQSPSTSSSVVGSLRGGQTFEIKGKSGSWYYINANGLTGYIHGDYVQVGENSSNNGGQSSGNNGQSSENNSGMDTSLAGKTGKVVNVSTSLRIRQSPSTSSSVVGSLSAGQTFKINGKNGAWYNIDAQGTKGHVHGDYVQVLSGNESSNSGSNNNQSGSQNNNLDESYNGKAGKVVNVTTNLRLRSQPSTSSSVLAYLLPNERFTLQGKTSSGWFKVNYNGKIGYLHEDYVKIVSSDEGANGNTGGSTGGGQVNQSKYEQVLSIMKSQIGSPYIYGGAGETLTSSLLSSLRRTFPDHAARGFYDIPSNYLNGNYRAFDCSGLMQWSFRQAGISLGRTTWDQINNGYEVSPSNAKPGDLLFFSNLGHVGMYIGNGQWIEAPNKGKFVSITSVPWSKIGRARRVL”, the protein production entry was “failed”. Regarding “MNRNLLYMILRLIFVIVATVAGFYVLLYMSGLIYPFIIAFAFAYLINPVVNFLNQKLQFPRALAVLVSLILVFGAIVGLVTYLVTEAISATTYLLQLVTVKFPDIVTFAQQFALNHIMPLYDDLISKFNHLGEPQRYTITQNIQNLGTEATTQMKELLTAIISGLTNFISALPTTLTVLVFILLATFFISYDWHRLAQKARKLLPNRVHGYGKTIFVDLRKALFGFVKAQLTLVSMTTVIVLIGLLILRVPYAITIAIITGVVDLLPYLGTGAVFVPWVIYVFFTGDTAFAIGLLILYIVVIVQRQIMEPKVLSSNIGLDPLATLVALFVGFKLFGFLGLIIGPVTLVLLNTLHKANVFHDLWKYIKGSPSK”, the protein production entry is “failed”.
